Data reported in US6495376.
Where two headings read alike, the source gives them in different places.

Key:
[1] = target: Pintide analogue WFYpSPFLE; assay: fluorescence anisotropy; low affinity site
[2] = target: Pintide analogue WFYpSPFLE; assay: fluorescence anisotropy; high affinity site
[3] = target: tau peptide … (pT-231), SEQ ID NO: 29; assay: ELISA on peptide
[4] = target: Pintide analogue WFYpSPFLE; assay: fluorescence anisotropy, fluorescein labeled Pintide; high affinity site
[5] = target: pT231 tau peptide (SEQ ID NO: 20); assay: ELISA on peptide
[6] = target: Amyloid Precursor Protein Peptide … (pT-668); assay: ELISA on peptide
[7] = target: pT231 tau peptide (SEQ ID NO: 20); assay: ELISA on peptide; remark: listed apart in the source
GST-WW-domain of Pin1 = GST-WW-domain of Pin1 (UniProt Q13526)
[8] = target: proteins of labeled HeLa cell lysates pretreated with Ser phosphatases (CIP, PP1 and PP2A); assay: pulldown from labeled HeLa lysates pretreated with Ser phosphatases
[9] = target: Cdc25 Peptide EQPLpTPVTDL; assay: fluorescence anisotropy, GST-WW-domain titrated on fluorescein-labeled peptide
[10] = target: Pintide analogue WFYpSPFLE; assay: as above
[11] = target: Pintide analogue WFYpSPFLE; assay: fluorescence anisotropy (Table 2 prints 1.0 for the WW-domain)

Sequence of Nedd4 WW-domain-1 (P46935 249-282): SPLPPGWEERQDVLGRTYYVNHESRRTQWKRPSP

Substance: GST-Pin1^Y23A (from UniProt P08515 1-218; Q13526 1-163) (enzyme)
- Kd [1]: 13500 nM

Substance: GST-Pin1^R14A (from UniProt Q13526 1-163) (enzyme)
- Kd [1]: 13500 nM
- Kd [2]: 2000 nM

Substance: Pin1^R14A (from UniProt Q13526 1-163) (enzyme)
- Binding (OD@405 nm) [3]: 1.3 OD@405 nm
- Kd [4]: 2000 nM

Substance: Pin1 (from UniProt Q13526 1-163) (enzyme)
- Kd [5]: 25 nM
- Binding (OD@405 nm) [6]: 1.81 OD@405 nm
- Binding (OD@405 nm) [7]: 1.46 OD@405 nm
- Kd [7]: 40 nM
- Kd [1]: 11000 nM
- Kd [2]: 1200 nM
- Kd [4]: 1200 nM

Substance: Cdc25C, in vitro translated (35S-Met), phosphorylated by Xenopus mitotic extracts
- dephosphorylation of the bound Cdc25C by calf intestine phosphatase (CIP) (GST-WW-domain of Pin1): When mitotically phosphorylated Cdc25C was precipitated using GST beads containing Pin1 or its WW-domain, CIP failed to dephosphorylate Cdc25C.

Substance: Nedd4 WW-domain-2 (from UniProt P46935 405-438)
- fold reduction of binding against untreated lysates [8]: 10 fold
- Kd [9]: 20000 nM
- Kd [10]: 10000 nM

Substance: Pin1 WW-domain (amino acids 1-54) (from UniProt Q13526 1-54)
- Kd [2]: 1000 nM
- Kd [11]: 1200 nM

Substance: GST-Pin1^S16A (from UniProt Q13526 1-163) (enzyme)
- Kd [1]: 10500 nM
- Kd [2]: 1200 nM

Substance: GST-Pin1^W34A (from UniProt Q13526 1-163) (enzyme)
- Kd [1]: 14000 nM

Substance: Pin1^S16A (from UniProt Q13526 1-163) (enzyme)
- Kd [4]: 1200 nM

Substance: GST-Pin1^S18E (from UniProt Q13526 1-163) (enzyme)
- Kd [1]: 12000 nM
- Kd [2]: 1000 nM

Substance: Nedd4 WW-domain-1 (from UniProt P46935 249-282)
- fold reduction of binding against untreated lysates [8]: 10 fold

Substance: Pin1^Y23F (from UniProt Q13526 1-163) (enzyme)
- Kd [4]: 5000 nM

Substance: GST-WW-domain of Pin1 (from UniProt Q13526 1-54)
- Kd [9]: 2200 nM
- Kd [10]: 1000 nM

Substance: GST-Pin1^S16E (from UniProt Q13526 1-163) (enzyme)
- Kd [1]: 10500 nM

Substance: GST-Pin1 (from UniProt Q13526 1-163) (enzyme)
- Kd [1]: 13000 nM
- Kd [2]: 1200 nM

Substance: Pin1 PPIase domain (amino acids 47-163) (from UniProt Q13526 47-163) (enzyme)
- Kd [1]: 15000 nM
